Measurements taken from patent publication US20040234498A1 (Genentech, published 2004).

T1: TNFR2 immunoadhesin (TNFR2 ECD fused to hinge and Fc portion of human IgG) (human, UniProt P20333 23-257, limits assumed)
T1 construct: extracellular domain; not shown: hinge and Fc portion of human IgG, as described for TNFR1 in Ashkenazi et al. 1991
T1 sequence (looked up): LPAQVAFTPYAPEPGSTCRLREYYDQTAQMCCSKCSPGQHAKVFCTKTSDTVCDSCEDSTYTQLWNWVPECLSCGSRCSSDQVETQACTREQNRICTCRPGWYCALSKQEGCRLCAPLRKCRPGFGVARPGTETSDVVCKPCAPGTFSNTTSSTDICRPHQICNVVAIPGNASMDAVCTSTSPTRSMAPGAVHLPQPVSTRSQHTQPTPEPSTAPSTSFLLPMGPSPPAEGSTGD

T2: DR4 immunoadhesin (DR4 ECD fused to hinge and Fc portion of human IgG) (human, UniProt O00220 24-239, limits assumed)
T2 construct: extracellular domain; not shown: hinge and Fc portion of human IgG, as described for TNFR1 in Ashkenazi et al. 1991
T2 sequence (looked up): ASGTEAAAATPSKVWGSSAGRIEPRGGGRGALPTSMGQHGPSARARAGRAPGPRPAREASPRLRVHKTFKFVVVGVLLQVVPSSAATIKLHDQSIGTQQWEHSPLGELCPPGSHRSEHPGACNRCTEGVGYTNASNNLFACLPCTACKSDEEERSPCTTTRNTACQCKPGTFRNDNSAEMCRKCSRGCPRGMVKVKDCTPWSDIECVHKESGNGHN

T3: Apo-3 immunoadhesin (Apo-3 ECD fused to hinge and Fc portion of human IgG) (human, UniProt Q93038 25-199)
T3 construct: extracellular domain; also called DR3; wsl-1; not shown: hinge and Fc portion of human IgG, as described for TNFR1 in Ashkenazi et al. 1991
T3 sequence (looked up): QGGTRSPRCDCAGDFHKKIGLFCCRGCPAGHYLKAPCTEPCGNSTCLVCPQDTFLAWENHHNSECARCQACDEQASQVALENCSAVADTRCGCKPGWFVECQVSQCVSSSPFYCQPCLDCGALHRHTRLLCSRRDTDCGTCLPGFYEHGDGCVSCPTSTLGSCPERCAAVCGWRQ

T4: CD95 immunoadhesin (CD95 ECD fused to hinge and Fc portion of human IgG) (human, UniProt P25445 26-173, limits assumed)
T4 construct: extracellular domain; also called Fas-IgG; Fas/Apo1; not shown: hinge and Fc portion of human IgG, as described for TNFR1 in Ashkenazi et al. 1991
T4 sequence (looked up): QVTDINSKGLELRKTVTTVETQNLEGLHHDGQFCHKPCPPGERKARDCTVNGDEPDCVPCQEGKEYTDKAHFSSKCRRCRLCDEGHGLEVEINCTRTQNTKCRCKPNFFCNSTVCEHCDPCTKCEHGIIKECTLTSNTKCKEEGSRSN

T5: TNFR1 immunoadhesin (TNFR1 ECD fused to hinge and Fc portion of human IgG) (human, UniProt P19438 30-211, limits assumed)
T5 construct: extracellular domain; also called TNFR1-IgG; not shown: hinge and Fc portion of human IgG, as described in Ashkenazi et al. 1991
T5 sequence (looked up): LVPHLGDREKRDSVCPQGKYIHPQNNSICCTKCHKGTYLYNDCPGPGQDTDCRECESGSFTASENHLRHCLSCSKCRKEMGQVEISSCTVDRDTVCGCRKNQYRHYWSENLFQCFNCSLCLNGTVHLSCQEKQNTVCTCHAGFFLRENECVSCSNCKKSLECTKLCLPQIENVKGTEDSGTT

T6: human GITR (hGITR), full length, on cells (human, UniProt Q9Y5U5 26-241)
T6 sequence (looked up): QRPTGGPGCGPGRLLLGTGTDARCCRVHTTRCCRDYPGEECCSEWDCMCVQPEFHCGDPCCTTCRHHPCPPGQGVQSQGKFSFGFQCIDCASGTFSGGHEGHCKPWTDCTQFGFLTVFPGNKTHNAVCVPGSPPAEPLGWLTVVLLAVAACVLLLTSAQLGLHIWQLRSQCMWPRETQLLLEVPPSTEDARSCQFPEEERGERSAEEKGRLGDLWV


Columns and labels:
[1] = molecular target: T1, TNFR2 immunoadhesin (TNFR2 ECD fused to …); experiment: co-precipitation with protein A-sepharose, SDS-PAGE, autoradiography
Protocol: (§1) A soluble DNA19355 polypeptide was also prepared by expressing the ECD in E. coli cells (as described in Example 3 above). The soluble DNA19355 ECD molecule was then labeled with ¹²⁵I. For comparison, immunoadhesin constructs were also made of the following TNF receptor family members: CD95, DR4, DR5, TNFR1, TNFR2, and Apo-3. CD95, DR4, DR5, TNFR1, TNFR2, and Apo-3 immunoadhesins were prepared by fusing each receptor's ECD to the hinge and Fc portion of human IgG, as described previously for TNFR1 [Ashkenazi et al., Proc. Natl. Acad. Sci., 88:10535-10539 (1991)]. The respective TNF receptor family members are described (and relevant references cited) in the Background of the Invention section.
(§2) For the co-precipitation assay, each immunoadhesin (5 microgram) was incubated with ¹²⁵I-labeled soluble DNA19355 polypeptide (1 microgram) for 1 hour at 24° C., followed by protein A-sepharose for 30 minutes on ice. The reaction mixtures were spun down and washed several times in PBS, boiled in SDS-PAGE buffer containing 20 mM dithiothreitol and then resolved by SDS-PAGE and autoradiography.

[2] = molecular target: T2, DR4 immunoadhesin (DR4 ECD fused to …); experiment: as above
Protocol: as §1, §2

[3] = molecular target: T3, Apo-3 immunoadhesin (Apo-3 ECD fused to …); experiment: as above
Protocol: as §1, §2

[4] = molecular target: T7, DR5 immunoadhesin (DR5 ECD fused to hinge and Fc portion of human IgG) (human, UniProt O14763 56-210, limits assumed); experiment: as above
T7 construct: extracellular domain; also called Apo-2; not shown: hinge and Fc portion of human IgG, as described for TNFR1 in Ashkenazi et al. 1991
Protocol: as §1, §2

[5] = molecular target: T4, CD95 immunoadhesin (CD95 ECD fused to …); experiment: as above
Protocol: as §1, §2

[6] = molecular target: T5, TNFR1 immunoadhesin (TNFR1 ECD fused to …); experiment: as above
Protocol: as §1, §2

[7] = molecular target: T6, human GITR (hGITR), full length, on …; experiment: cell-based or functional assay
[8] = molecular target: T5, TNFR1 immunoadhesin (TNFR1 ECD fused to …); experiment: FACS on HUVEC cells (endogenous DNA19355 transcripts)
Protocol: The DNA19355 polypeptide was identified in a human umbilical vein endothelial cell (HUVEC) library, and the DNA19355 polypeptide transcripts are readily detectable in HUVEC by RT-PCR (data not shown). […] HUVEC cells were purchased from Cell Systems (Kirkland, Wash.) and grown in a 50:50 mix of Ham's F12 and Low Glucose DMEM media containing 10% fetal bovine serum, 2 mM L-glutamine, 10 mM Hepes, and 10 ng/ml basic FGF. Cells were FACS sorted with PBS, hGITR-IgG, TNFR1-IgG or Fas-IgG as a primary antibody and goat anti-human F(ab′)2 conjugated to phycoerythrin (CalTag, Burlingame, Calif.).

| binding result [1] | binding result [2] | binding result [3] | binding result [4] | binding result [5] | binding result [6] | secreted TNF-alpha levels from primary human T cells (ELISA of culture supernatants) [7] [fold] | binding result [8] | Binder |
| --- | --- | --- | --- | --- | --- | --- | --- | --- |
| no binding | no binding | no binding | no binding | no binding | no binding | ~20 | – | soluble DNA19355 polypeptide (His10-tagged extracellular region, amino acids 52 to 177, expressed in E. coli) (ligand, 125I-labeled (radioiodinated) in the co-precipitation assay, also called soluble DNA19355 ECD molecule; radioiodinated soluble DNA19355 polypeptide) MGHHHHHHHHHHSSGHIDDDDKHMETAKEPCMAKFGPLPSKWQMASSEPPCVNKVSDWKLEILQNGLYLIYGQVAPNANYNDVAPFEVRLYKNKDMIQTLTNKSKIQNVGGTYELHVGDTIDLIFNSEHQVLKNNTYWGIILLANPQFIS |
| – | – | – | – | – | – | – | no binding | full length DNA19355 polypeptide on cells (ligand, also called full-length DNA19355 protein; GLITTER) MCLSHLENMPLSHSRTQGAQRSSWKLWLFCSIVMLLFLCSFSWLIFIFLQLETAKEPCMAKFGPLPSKWQMASSEPPCVNKVSDWKLEILQNGLYLIYGQVAPNANYNDVAPFEVRLYKNKDMIQTLTNKSKIQNVGGTYELHVGDTIDLIFNSEHQVLKNNTYWGIILLANPQFIS |
